System: Bacillus subtilis
Experiment: cleaved RNA product abundance (RNA/gDNA barcode ratio) relative to median wild-type variant (ratio to wild type); higher = more accumulation of the downstream cleavage product
Procedure, shortened: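 Sequencing of barcodes from gel-selected, reverse-transcribed cleaved RNA and from genomic DNA, with UMI collapsing, yielded a per-construct RNA:gDNA ratio. Scaled to the median construct with the unmutated site, this ratio is the cleaved product abundance. The barcoded reporters (truncated aprE or tetM mRNAs with mutagenized RNase Y cleavage-site windows) were integrated into the B. subtilis chromosome, and cultures grew in LB at 37°C from OD600 0.0003 to 0.3.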

[1] = experiment (reporter, strain, medium): exp 8a: truncated aprE reporter, strain BJT201 with 2% xylose (RNase J1 expressed), cleavage site: glnRA (positions -5 to +31 mutated)
[2] = experiment (reporter, strain, medium): exp 4a: truncated aprE reporter, strain BJT201 with 2% xylose (RNase J1 expressed), cleavage site: cggR-gapA (positions -7 to +36 mutated)
[3] = experiment (reporter, strain, medium): exp 2b: truncated aprE reporter, strain BJT200, cleavage site: cggR-gapA (positions -7 to +36 mutated)

Row | Sequence | cleaved RNA product abundance [1] | cleaved RNA product abundance [2] | cleaved RNA product abundance [3]
1 | CGACATGTCCCGCTTCTTTCATTATTCCGTTAGCAACTGTTTTGCTATATACATTTACCATTTAAGAGGAGGAAT | 1.89 | – | –
2 | ACAGACGAAGGAGCCGCAAAGAAGTTATTAAGGGATAAATAATCCCTCATTATAAATATCTCTCACTTATTTAAA | – | 0.267 | –
3 | ACAGACGAAGGAGCCGCAAAGAAGTTTTTAAGGGATGAATAATCCATCAATATAAATATCTCTCACTTATTTAAA | – | 0.189 | 0.178
4 | ACAGACGAAGGAGCCGCAAAGAAGTTATTAAAGGATGAATAATCCCTCTATATAAAAATCTCTCACTTATTTAAA | – | 0.229 | –
5 | CGACATGTCCCGCTTCTTTCATTAATCCGATACCAACTGTTTTGCTATATACATTTACCTTTTAAGAGGAGGAAT | 0.304 | – | –
6 | ACAGACGAAGGAGCCGCAAAGAAGTTATTAAAGGCTGAATAATCCCTCAATATAAATATCTCTCACTTATTTAAA | – | 0.0571 | 0.0927
7 | ACAGACGAAGGAGCCGCAAAGAAGTTATTAAGGGATGAATATTCCCACAATATAAATATCTCTCACTTATTTAAA | – | 0.178 | 0.177
8 | ACAGACGAAGGAGCCGCTAAGAAGCTATTAAGGGATGAATAATCCCTCAATATAAATATCTCTCACTTATTTAAA | – | 0.52 | –
9 | CGACATGTCCCGCTTCTTTCATTAATCGCTTAGCAACTGTTTTGCTATATACATTTACCTTTTAAGAGGAGGAAT | 0.335 | – | –
10 | ACAGACGAAGGAGCCGCAAAGTAATTATTAAGGGATGAATAATCCCTCAATATAAATATCTCTCACTTATTTAAA | – | 0.645 | –
11 | ACAGACGAAGGAGCCGCGAAGAAGTTATTAAGGGATGAATAATCCCACAATATAAATATCTCTCACTTATTTAAA | – | 0.227 | 0.17
12 | ACAGACGAAGGAGCCGCAAAGAAGTTATCAAGGGATGAATAATCCCTCACTATAAATATCTCTCACTTATTTAAA | – | 0.306 | –
13 | CGACATGTCCCGCTTCTTTCATTAACCCTTTAGCAACTGTTTTGCTATATACATTTACCTTTTAAGAGGAGGAAT | 0.181 | – | –
14 | ACAGACGAAGGAGCCGCAAAGAAGTTATTATGGGATGAAAAATCCCTCAATATAAATATCTCTCACTTATTTAAA | – | 0.334 | –
15 | CGACATGTCCCGCTTCTTTCATTAATCCGTTAGCAAGTGTTTTGCTATATTCATTTACCTTTTAAGAGGAGGAAT | 0.488 | – | –
16 | ACAGACGAAGGAGCCGCAAAGAAGTTATTAAGGGATGAATAATCCATCCATATAAATATCTCTCACTTATTTAAA | – | 0.222 | –
17 | ACAGACGAAGGAGCCGCAAAGAAGTTATTAAGGGATAAATAATCCCTCAATATATATATCTCTCACTTATTTAAA | – | 0.916 | –
18 | ACAGACGAAGGAGCCGCAAAGAAGTTATTTAGGGATGAAGAATCCCTCAATATAAATATCTCTCACTTATTTAAA | – | 0.607 | –
19 | ACAGACGAAGGAGCCGCAAAGAAGTGATTAAGGGATGAATAATCTCTCAATATAAATATCTCTCACTTATTTAAA | – | 0.306 | –
20 | ACAGACGAAGGAGCCGCAAAGAAGTTATTAAGGGGTGAATAATCCCTCAATATAAATACCTCTCACTTATTTAAA | – | 0.623 | –
21 | CGACATGTCCCGCTTCTTTCATTAATCCGTTTGCAACTGTTTTGCTATATACATTGACCTTTTAAGAGGAGGAAT | 0.837 | – | –
22 | CGACATGTCCCGCTTCTTTCATTAATCCATCAGCAACTGTTTTGCTATATACATATACCTTTTAAGAGGAGGAAT | 0.507 | – | –
23 | ACAGACGAAGGAGCCGCAAAGAAGTTATTAAGTGATGAATAATCTCTCAATATAAATATCTCTCACTTATTTAAA | – | 0.172 | 0.113
24 | ACAGACGAAGGAGCCGCAAAGAAGTTATTAAGCGATTAATAATCCCTCAATATAAATATCTCTCACTTATTTAAA | – | 0.0983 | 0.0842
25 | ACAGACGAAGGAGCCGCAAAGAAGTGATTAAGGGATGAATAATCCCACAATATAAATATCTCTCACTTATTTAAA | – | 0.226 | –
26 | ACAGACGAAGGAGCCGCAGAGAAGTTATTAAGGGATGAATAATCCCTAAATATAAATATCTCTCACTTATTTAAA | – | 0.755 | –
27 | CGACATGTCCCGCTTCTTTCATTAATACGTTTGCAACTGTTTTGCTATATACATTTACCTTTTAAGAGGAGGAAT | 0.769 | – | –
28 | ACAGACGAAGGAGCCGCAAAGAAGTTACTAAGGGATGAATAATTCCTCAATATAAATATCTCTCACTTATTTAAA | – | 0.24 | –

Row | Sequence | cleaved RNA product abundance [1] | cleaved RNA product abundance [2] | cleaved RNA product abundance [3]
29 | ACAGACGAAGGAGCCGCAAAGAAGTTATTAAGGGATGAATAATACCTCAATATAAATTTCTCTCACTTATTTAAA | – | 0.15 | –
30 | ACAGACGAAGGAGCCGCAAAGAAGTTATTAAGGGATGAGTAATCCCTTAATATAAATATCTCTCACTTATTTAAA | – | 0.601 | –
31 | CGACATGTCCCGCTTCTTTCATTAAACCGTTAGCAACTGTTTTGCTATATACATTTTCCTTTTAAGAGGAGGAAT | 0.432 | – | –
32 | ACAGACGAAGGAGCCGCAAAGAAGTGATTAAGGAATGAATAATCCCTCAATATAAATATCTCTCACTTATTTAAA | – | 0.115 | –
33 | CGACATGTCCCGCTTCTTTCATTAATCCGTTAGCAACTGTTTTGCTATATGCAATTACCTTTTAAGAGGAGGAAT | 0.289 | – | –
34 | ACAGACGAAGGAGCCGCCAAGAAGTTATTAAGGGATGAATAATCCCTTAATATAAATATCTCTCACTTATTTAAA | – | 0.305 | 0.21
35 | CGACATGTCCCGCTTCTTTCATTATTCCGTTAGCAACTGTTTTGCTATATACATTAACATTTTAAGAGGAGGAAT | 2.49 | – | –
36 | ACAGACGAAGGAGCCGCAAAAAAGTTATTAAGGGATGAGTAATCCCTCAATATAAATATCTCTCACTTATTTAAA | – | 0.415 | 0.481
37 | ACAGACGAAGGAGCCGCAAAGAAGATATTAAGGCATGAATAATCCCTCAATATAAATATCTCTCACTTATTTAAA | – | 0.17 | 0.088
38 | ACAGACGAAGGAGCCGCAAAGAAGTGATTAAGGTATGAATAATCCCTCAATATAAATATCTCTCACTTATTTAAA | – | 0.113 | 0.0827
39 | ACAGACGAAGGAGCCGCAAAGAAGTTATTAAGGGATGAATAATCCCTCAATATAAATTACTCTCACTTATTTAAA | – | 0.951 | –
40 | ACAGACGAAGGAGCCGCAAAGAAGTTATTAAATGATGAATAATCCCTCAATATAAATATCTCTCACTTATTTAAA | – | 0.1 | 0.0939
41 | ACAGACGAAGGAGCCGCAAAGAAGTTATTAAGGGAAGAATAATCCCTCAATATAAAGATCTCTCACTTATTTAAA | – | 0.495 | –
42 | ACAGACGAAGGAGCCGCAAAGCAGTTATTAAGGGATGAATAATCGCTCAATATAAATATCTCTCACTTATTTAAA | – | – | 0.083
43 | ACAGACGAAGGAGCCGCAAAAAAGTTATTAAGGGATGAATAATCCCTCAATACAAATATCTCTCACTTATTTAAA | – | 0.0755 | –
44 | ACAGACGAAGGAGCCGCAAAGAAGTTATTAAGGGATGACTAATTCCTCAATATAAATATCTCTCACTTATTTAAA | – | 0.314 | –
45 | ACAGACGAAGGAGCCGCAAAGAATCTATTAAGGGATGAATAATCCCTCAATATAAATATCTCTCACTTATTTAAA | – | 0.689 | –
46 | ACAGACGAAGGAGCCGCAAAGAAGTTATTAATGGATGAATGATCCCTCAATATAAATATCTCTCACTTATTTAAA | – | 0.113 | –
47 | ACAGACGAAGGAGCCGCAAAGAAGTTATTAAGGGATGAATAAATCCTCAATATAAATATCTCTCACTTATTTAAA | – | 0.306 | –
48 | ACAGACGAAGGAGCCGCAAAGAAGTTATTAAGGGATGAATAATTCCTCACTATAAATATCTCTCACTTATTTAAA | – | 0.156 | 0.132
49 | CGACATGTCCCGCTTCTTTCATTAATCCGTTAGCAACTGTTTTGCTATATACATATACCATTTAAGAGGAGGAAT | 0.971 | – | –
50 | ACAGACGAAGGAGCCGCAAAGATGTTATTAAGGGTTGAATAATCCCTCAATATAAATATCTCTCACTTATTTAAA | – | – | 0.251
51 | ACAGACGAAGGAGCCGCAAAGAAGTTATTAAGCTATGAATAATCCCTCAATATAAATATCTCTCACTTATTTAAA | – | 0.104 | 0.0874
52 | ACAGACGAAGGAGCCGCAAAGAAGTTATTAAGGGCTAAATAATCCCTCAATATAAATATCTCTCACTTATTTAAA | – | 0.368 | 0.389
53 | CGACATGTCCCGCTTCTTTCATTAATACGTTAGCAAGTGTTTTGCTATATACATTTACCTTTTAAGAGGAGGAAT | 0.882 | – | –
54 | ACAGACGAAGGAGCCGCAAAGAAGTTATTAAGGGATTAATAATCCCTCAATATAAATTTCTCTCACTTATTTAAA | – | 0.57 | 0.686
55 | CGACATGTCCCGCTTCTTTCATTAATCCGTTAGCAACGGTTTTGCCATATACATTTACCTTTTAAGAGGAGGAAT | 0.202 | – | –
